Legend:
[1] = target: C3G P1 P1 (Homo sapiens) (UniProt Q13905); conditions: cited from earlier work
[2] = target: T1, Src-phosphorylated C3G (pC3G), wild type (human) (UniProt Q13905)
T1 sequence (chain, phosphotyrosines (phosphorylated in vitro by Src; sites not stated)): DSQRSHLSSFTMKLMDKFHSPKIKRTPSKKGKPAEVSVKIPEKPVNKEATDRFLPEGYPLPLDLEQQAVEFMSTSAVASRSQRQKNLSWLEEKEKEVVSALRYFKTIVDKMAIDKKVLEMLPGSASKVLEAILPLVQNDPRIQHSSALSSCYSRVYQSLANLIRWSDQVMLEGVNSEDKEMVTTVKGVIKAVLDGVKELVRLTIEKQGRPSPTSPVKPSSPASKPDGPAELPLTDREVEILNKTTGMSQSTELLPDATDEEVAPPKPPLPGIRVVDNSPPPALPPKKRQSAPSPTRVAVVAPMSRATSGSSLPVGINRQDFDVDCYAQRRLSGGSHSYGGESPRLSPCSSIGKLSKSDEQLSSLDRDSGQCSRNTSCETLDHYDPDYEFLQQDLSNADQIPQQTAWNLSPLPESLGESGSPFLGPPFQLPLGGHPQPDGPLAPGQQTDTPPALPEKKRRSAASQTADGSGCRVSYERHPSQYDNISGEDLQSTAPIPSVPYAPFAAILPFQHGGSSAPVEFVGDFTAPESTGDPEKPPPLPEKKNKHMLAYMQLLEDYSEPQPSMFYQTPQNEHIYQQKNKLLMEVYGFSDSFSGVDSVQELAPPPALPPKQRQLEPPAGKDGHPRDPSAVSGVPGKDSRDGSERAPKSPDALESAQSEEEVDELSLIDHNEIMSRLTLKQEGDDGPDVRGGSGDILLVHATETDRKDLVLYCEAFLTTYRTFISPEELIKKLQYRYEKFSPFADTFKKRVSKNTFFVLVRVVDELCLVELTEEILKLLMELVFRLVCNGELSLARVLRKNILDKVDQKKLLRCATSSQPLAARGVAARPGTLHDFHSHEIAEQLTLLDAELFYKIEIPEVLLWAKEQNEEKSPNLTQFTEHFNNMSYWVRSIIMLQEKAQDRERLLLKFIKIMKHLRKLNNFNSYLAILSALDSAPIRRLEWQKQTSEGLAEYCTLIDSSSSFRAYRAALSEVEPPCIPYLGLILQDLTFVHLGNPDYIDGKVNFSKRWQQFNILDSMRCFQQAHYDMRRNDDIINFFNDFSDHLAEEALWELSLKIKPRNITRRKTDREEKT

[3] = target: T2, C3G full-length wild type (human, isoform a, residues 4-1077) (human) (UniProt Q13905)
T2 sequence: T1 sequence (chain, phosphotyrosines (phosphorylated in vitro by Src; sites not stated))

[4] = target: the P1 (C3G-PAAA) and P2 (C3G-APAA) motifs; experiment: ITC; single-PRM mutants of C3G in the cell titrated with full-length CrkL or CrkL-SH3N; 25 °C; 1:1 model in SEDPHAT; N is the competent fraction of C3G

Chain of CrkL, full-length (human) (P46109 whole entry): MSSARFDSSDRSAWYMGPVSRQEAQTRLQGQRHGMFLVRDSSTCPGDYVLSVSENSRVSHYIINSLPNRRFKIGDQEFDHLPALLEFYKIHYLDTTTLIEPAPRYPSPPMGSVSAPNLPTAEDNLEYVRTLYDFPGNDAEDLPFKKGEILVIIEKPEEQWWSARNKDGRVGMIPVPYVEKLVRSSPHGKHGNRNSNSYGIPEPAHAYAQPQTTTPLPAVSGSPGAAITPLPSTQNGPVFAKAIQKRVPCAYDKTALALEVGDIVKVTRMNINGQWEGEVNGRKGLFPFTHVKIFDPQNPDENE
Chain of CrkL (P46109 whole entry): as above

AC50 of the dose-response activation of the GEF activity of pC3G (0.2 µM) on Rap1b:mant-dGDP [2] | kmax of the dose-response activation of the GEF activity of pC3G (0.2 µM) on Rap1b:mant-dGDP [2] | AC50 of the dose-response activation of the GEF activity of C3G (1 µM) on Rap1b:mant-dGDP [3] | kmax of the dose-response activation of the GEF activity of C3G (1 µM) on Rap1b:mant-dGDP [3] | stoichiometry N [4] | Substance | Kd [1]
– | – | – | – | – | CrkL (from UniProt P46109) | 2800 nM
2.3 µM | 0.0336 s^-1 µM^-1 | 16.7 µM | 0.0079 s⁻¹ µM⁻¹ | – | CrkL-II-L chimera (from UniProt P46109 1-124; P46108-1 134-191; P46109 183-303) | –
1.6 µM | 0.03 s^-1 µM^-1 | 18.7 µM | 0.0079 s⁻¹ µM⁻¹ | – | CrkII-L-II chimera (from UniProt P46108-1 1-133; P46109 125-182; P46108-1 191-304) | –
– | – | – | – | 0.8 to 0.9 | CrkL, full-length (human) (from UniProt P46109 1-303) (natural protein) | –

Reference: publication PMC9896810
